Consider two substances from paper PMC12289019.

Test [1] addresses adeno-associated virus 2 (AAV2) capsid (adeno-associated virus 2).
Test [2] has as its target adeno-associated virus 6 (AAV6) capsid (adeno-associated virus 6).
In test [3] the target is adeno-associated virus 2 (AAV2) capsid (adeno-associated virus 2). The experiment in a line: SPR; AAV2 amine-coupled to a CM5 chip (9451 RU); HD5 or HNP1 as analyte; BIAcore X100, 25°C, PBS running buffer; 1:1 binding model for KD; stoichiometry by GraphPad Prism; 2 replicates; paper speaks of avidity.
Test [4] has the same target. The source holds these as a separate data set.

In test [1], human defensin 5 (HD5) (peptide) had an IC50 of inhibition of AAV2 binding to HeLa cells in the cold (qPCR of bound genomes) of 9.2 µM and an IC50 of inhibition of AAV2 infection of HeLa cells (GFP), defensin added post-attachment of 4.4 µM. Besides, the IC50 of inhibition of AAV6 binding to HeLa cells in the cold (qPCR of bound genomes); inhibition incomplete in test [2] was determined as 41.6 µM. In test [3], this substance yielded a Kd of 0.57 µM and a stoichiometry N (molecules per capsid) of 385.
As to human neutrophil peptide 1 (HNP1), the IC50 of inhibition of AAV2 infection of HeLa cells (GFP), defensin added post-attachment in test [1] stood at 6 µM. In test [3], this substance yielded a Kd of 0.32 µM and a stoichiometry N (molecules per capsid) of 227. This substance showed an IC50 of inhibition of AAV2 infection of HeLa cells (GFP), defensin incubated with virus pre-attachment in test [4] of 9.7 µM.
